Reference: publication PMC9544323, “Abscisic acid regulates stomatal production by imprinting a SnRK2 kinase–mediated phosphocode on the master regulator [sequence]” (Science Advances, 2022)
Each block holds one binder with its values, some of them ahead of it.

Target: T1, GST-SPCH (glutathione S-transferase-tagged …) (Arabidopsis thaliana, UniProt Q700C7 1-364)
T1 construct: cDNA cloned into pDEST15; cDNA recombined into pDEST15; also called GST-tagged SPCH; source: E. coli ArcticExpress (DE3), purified (Pierce Glutathione Agarose)
T1 sequence (looked up): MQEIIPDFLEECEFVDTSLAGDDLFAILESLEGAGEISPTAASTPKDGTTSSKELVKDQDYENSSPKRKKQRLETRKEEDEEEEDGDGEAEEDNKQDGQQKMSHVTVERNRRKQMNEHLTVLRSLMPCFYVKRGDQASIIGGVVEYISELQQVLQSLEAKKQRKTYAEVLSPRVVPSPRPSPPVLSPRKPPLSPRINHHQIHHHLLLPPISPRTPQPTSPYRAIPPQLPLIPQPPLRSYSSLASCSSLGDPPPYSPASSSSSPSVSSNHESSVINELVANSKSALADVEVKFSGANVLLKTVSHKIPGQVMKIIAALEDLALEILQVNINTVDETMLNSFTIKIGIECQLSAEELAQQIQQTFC
Test: pull-down; GST-SPCH or GST (1 ug) on Pierce Glutathione Agarose; MBP-SnRK2.2/2.3/2.6 or MBP alone (1 ug) added; 4 C, 2 hours; washed five times with 20 mM tris-HCl pH 7.5, 300 mM NaCl, 0.1% NP-40, 1 mM EDTA; blot with anti-MBP
Details: both partners purified

binding result: binds
B1: MBP-SnRK2.3 (maltose-binding protein-tagged SnRK2.3) (enzyme, Arabidopsis thaliana, UniProt Q39193 1-361, looked up)
chain: MDRAPVTTGPLDMPIMHDSDRYDFVKDIGSGNFGVARLMRDKLTKELVAVKYIERGDKIDENVQREIINHRSLRHPNIVRFKEVILTPTHLAIIMEYASGGELYERICNAGRFSEDEARFFFQQLLSGVSYCHSMQICHRDLKLENTLLDGSPAPRLKICDFGYSKSSVLHSQPKSTVGTPAYIAPEVLLRQEYDGKIADVWSCGVTLYVMLVGAYPFEDPEEPRDYRKTIQRILSVKYSIPDDIRISPECCHLISRIFVADPATRISIPEIKTHSWFLKNLPADLMNESNTGSQFQEPEQPMQSLDTIMQIISEATIPAVRNRCLDDFMTDNLDLDDDMDDFDSESEIDIDSSGEIVYAL
notes: SnRK2.3/SRK2I, subclass III SNF1-related protein kinase 2, Arabidopsis thaliana; cDNA cloned into pETG-40A; also called SRK2I; source: E. coli ArcticExpress (DE3), purified (MBP amylose resin)

binding result: binds
B2: MBP-SnRK2.6 (maltose-binding protein-tagged SnRK2.6) (enzyme, Arabidopsis thaliana, UniProt Q940H6 1-362, looked up)
chain: MDRPAVSGPMDLPIMHDSDRYELVKDIGSGNFGVARLMRDKQSNELVAVKYIERGEKIDENVKREIINHRSLRHPNIVRFKEVILTPTHLAIVMEYASGGELFERICNAGRFSEDEARFFFQQLISGVSYCHAMQVCHRDLKLENTLLDGSPAPRLKICDFGYSKSSVLHSQPKSTVGTPAYIAPEVLLKKEYDGKVADVWSCGVTLYVMLVGAYPFEDPEEPKNFRKTIHRILNVQYAIPDYVHISPECRHLISRIFVADPAKRISIPEIRNHEWFLKNLPADLMNDNTMTTQFDESDQPGQSIEEIMQIIAEATVPPAGTQNLNHYLTGSLDIDDDMEEDLESDLDDLDIDSSGEIVYAM
notes: SnRK2.6/SRK2E/OST1, subclass III SNF1-related protein kinase 2, Arabidopsis thaliana; cDNA cloned into pETG-40A; also called SRK2E; OPEN STOMATA 1; source: E. coli ArcticExpress (DE3), purified (MBP amylose resin)

binding result: binds
B3: MBP-SnRK2.2 (maltose-binding protein-tagged SnRK2.2) (enzyme, Arabidopsis thaliana, UniProt Q39192 1-362, looked up)
chain: MDPATNSPIMPIDLPIMHDSDRYDFVKDIGSGNFGVARLMTDRVTKELVAVKYIERGEKIDENVQREIINHRSLRHPNIVRFKEVILTPSHLAIVMEYAAGGELYERICNAGRFSEDEARFFFQQLISGVSYCHAMQICHRDLKLENTLLDGSPAPRLKICDFGYSKSSVLHSQPKSTVGTPAYIAPEILLRQEYDGKLADVWSCGVTLYVMLVGAYPFEDPQEPRDYRKTIQRILSVTYSIPEDLHLSPECRHLISRIFVADPATRITIPEITSDKWFLKNLPGDLMDENRMGSQFQEPEQPMQSLDTIMQIISEATIPTVRNRCLDDFMADNLDLDDDMDDFDSESEIDVDSSGEIVYAL
notes: SnRK2.2/SRK2D, subclass III SNF1-related protein kinase 2, Arabidopsis thaliana; cDNA cloned into pETG-40A; also called SRK2D; source: E. coli ArcticExpress (DE3), purified (MBP amylose resin)
